Results taken from a protein production outcome set (Wang et al. 2014).

assay: label from the status in PepcDB records
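Note: failed if final PepcDB status was selected cloned or expressed and not failed if soluble or beyond.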

With “MPLHPTSQDCVVEQSVDALRERERRFRMLADNMSQLAWTASPRGQVQWYNERWYAYTGATLEAMVALGWRSVVHPEHRERVMARLQYCFATGSVWEDTFALRGKDGAFNWFLSRALPMRDAQGHITHWLGTHTDITAQVNAEEALRELNESLELRVAERTRELAKANELLQVEIAERAQAEEVLRHAQKMDAIGQLTGGIAHDFNNMLSGVLGALDMIRLRIGAQRFGEVDRYVDAAVSSANRAAALTQRLLTFARRQSLSVGTVDINCMVRSMEELLRGTVGNHAQLHIELEEGLSAIQTDEHQLENALLNLVINARDAVPVAGLISVRSQALRLVAQEGALAAGDYVRLSVEDNGCGIAQDVIDRVFDPFFTTKPVGQGTGLGLSMVYGFIKQTGGHVQIKSEQGQGTRICLYLPCGAATA” as the sequence, how does the protein production read?
Its protein production is “failed”.

For “MPLLFDSQMTPITNSGWRRHWFEIVYRHDTPPSRNFDLLLMSAILGSVLVVMLDSVLILQAHWKYFLYTLEWLFTLIFTADYLIRLVVVQQRLRYVLSIWGIIDLLSILPTYLSLFMPGTQSLLIVRVLRLLRLFRILKMTHYVEESGELIQALWRSRRKVMLFICTVMTIAMIAGATMYVIEGPQHGFTSIPTGMYWAIVTMTTVGFGDITPQSTLGRFVTSALILIGYSIIAVPTGIYTAELTQGLLRSEEEHRHDMRTCPHCGLQGHDHDARYCRNCGGILPQTLHEPNPATQQ”, which protein production is on record?
The protein production was “failed”.

With “MPLSVGQGYFTSSISSEKFNAIKESARLPELSLWEKIKAYFFTTHHAEALECIFNLYHHQELNLTPVQVRGAYIKLRALASQGCKEQFIIESQEHADKLIIKDDNGENILSIEVECHPEAFGLAKEINKSHPKPKNISLGDITRLVFFGDSLSDSLGRMFEKTHHILPSYGQYFGGRFTNGFTWTEFLSSPHFLGKEMLNFAEGGSTSASYSCFNCIGDFVSNTDRQVASYTPSHQDLAIFLLGANDYMTLHKDNVIMVVEQQIDDIEKIISGGVNNVLVMGIPDLSLTPYGKHSDEKRKLKDESIAHNALLKTNVEELKEKYPQHKICYYETADAFKVIMEAASNIGYDTENPYTHHGYVHVPGAKDPQLDICPQYVFNDLVHPTQEVHHCFAIMLESFIAHHYSTE” as the sequence, how does the protein production read?
The protein production was “failed”.

Which protein production does the source give for “MPLTDTALKALKPRDRIYSVADERGLSVEVYPTGGIVWRFRYRLAGRYEKLTLGKYPALSLRNARLKRDEAASLVAMGTSPARQKQLAKVTAADAMTVRDFAERFFREIQSRDRKDSTMPRRYLDKDILPFVGDKPMREVTAEEIRSLIWRKKEQGFDATAGQIRGVLKRLCDYAVTCGLMPTNPVLALPMRHVYKAVSRDRALSPDEIRLFLRAVWASRIRRQFKLALHLILLTMVRKSELLLARWDHVHLDQAQWHIPAEHSKTGKPHIVYLSRQAVVLFEALRVLAGGSALVMPGSGTLTRPFAHNALNHALGKAMQWQGIHAFTIHDLRRTASTWLHEHGWASDVVEKALNHSIGGVRGVYNRAEYADQRRQMLQCWADFIEKQLKTDHLLMVCHTELDGAKPGTP” here?
Its protein production is “failed”.

Which protein production does the source give for “MPLTNHTPEDRVQDIFDHIAPQYDQMNSVISLGTHHWWRQRVMQAMTLHAGDFALDVCCGTGDWTIALAQAVGPAGHVVGFDFSGVMLQHATTKVRQAQLDDRITLRQGDAMQLPYPDNYFNVVTIGFGLRNVPDATQVLREMARVVKPGGQVVCLETSQPTNPLVHAGWQVYFGHVVPLMGRLAHHYQAYNYLQSSTHHFVSAKELSRLFTAAGLTQVHYDLFNLGAAAVHWGRKPYLEHHHHHH” here?
Its protein production is “not failed”.

Which protein production does the source give for “MPNAIFFYRIQRWLYLHHIPFLPKLIQLLIFLIYNTKITADSKIGKGSYFVCKGISTVLIPGTEIGENCVLGLRFSTVRKFPYKNVPKIGNNVFIGPNVVICGPVEIGDNCIVAANSFVDKSLRGG” here?
Its protein production is “failed”.

With “MPNIGIIGAGIGGLQLGLQLRQHDIPVTIYTDKTANQIAGGRLLNSVAHHGPTLERERLLGVHFWPVEEYGYSCHHHYLGGDQPMSFRGDFTNWSSAIDYRLYLPKLSEAFQERGGNLEVRMLQADDIEPIAARHDLIVVAAGRGAFASMFPRRPDLSPYDTPQRALSVGIYRGIAESDPRGVTISTSPGHGDLLEIPMYTEDGFLTALLFENIPGGDLEILAKMSYDDDPQAFNRTVLDKLARHHPQTFERVDHTQFGLHRSIDLLQGALVPTVREDYAKLPGGKFALAIGDVHTVVDPLLGQGANSASHSAWVTGEAIVEDLGFDEMFCTRVARRRADVVLGAAQWTNLMLAPPAEHVLRLFEAMNANKAVADEFTHNFDHPDRQWQILATAERTNAFLARHGIESAAALAV” as the sequence, how does the protein production read?
Its protein production is “failed”.

With “MPNNHLTAAAPAQGREAIASPMERFSQAMVAWAEKWFPDAYVFVVVACAVVALGAILHGGDPLAVSKAFGEGFWSIIPLTMQMAMVAITGYVLALSPPVARLLRALARVPSTPRGAVVFIGTLSILLSLVNWGLSLIFSGLLVREMARRNDLRLDYRAAGAAGYLGLGCGFTLGMSSSAAQLQATPASIPASLMPITGVIGFSETILTWQNLVVVILVTVVSGLVCYFTAPSPERSLTAQDLGVDLTEPEAQAAQRQRPGDYLEFSPWLTVAVVGLASGWLYLTFRSGNPFITMSQLNTYNFVFLLLGLLLHWRPRSFLESFGRAMPSIGGVMLQFPFYGGIGYVLTKVANVQGHTLSDAIAHWFVSLAHDSSVFSILVSIYSAFLGFFIPSAGGKWVIEAPYIMDAANQIQAHLGWTVMVYNIAETLPNFINPFWMLPLLGILRLKSKDLVGYTAMQFLVHFPIVVAAGAILMHTFSYVPPVIPGQ” as the sequence, how does the protein production read?
Its protein production is “failed”.

For “MPNRKASRNAYYFFVQEKIPELRRRGLPVARVADAIPYCSSDWALLREEEKEKYAEMAREWRAAQGKDPGPSEKQKPVFT”, which protein production is on record?
The protein production was “not failed”.

For “MPNTIRLHRVLSAPPERVYRAFLDPLALAKWLPPEGFVCKVLEHDARVGGAYKMEFLAFASGQKHAFGGRYLELVPGERIRYTDRFDDAGLPGDMITTITLAPLSCGADLSIVQEGIPDAIPPENCYLGWQQSLKQLAALVEPDMPGLEHHHHHH”, which protein production is on record?
Its protein production is “not failed”.

Which protein production does the source give for “MPPCYQHEEEKFFLNAKGQKEALPSIWDSPTKQLSVVVPSYNEEKRLPVMMDEALNYLEKRQKHDCTFTYEVIVVDDGSEDQTSKVALKYCQKYGSDKVRVITLVRNRGKGGAVRMGVFSSRGEKILMADADGATKFPDVEKLEKGLSDLQPWPEQMAIACGSRAHLEKESIAQRSYFRTFLMYGFHFLVWFLCVKGIRDTQCGFKLLTREAAARTFSSLHIERWAFDVELLYIAQCLQIPIAEVAVNWTEIEGSKLVPFWSWLQMGKDLLFIRLRYLTGAWRLKQTRKAS” here?
Its protein production is “failed”.

With “MPPFLPLQVIKGVGPKRAVILAEAGIRSIADLYDCFPRRYLDRTTIKKIGALRDGETVTVVGSVTGTRFEGGGRGGSRFKAQITDGSGVLELTWFRGVHYFSKTIRSGELVAAHGRVTFFGRTPGMQHPDFDKLGGDDESGDGQRDDELYKTGAIIPIYPTTEAMKQAGLNSAALRRIVHRAFREHPLRITEYLSPEIIAANNLMPIGEAYRQLHFPDSAEQLERARYRMKWSELFFAQLFFALRRTEERRHLTSVRFERSGEKTASLHERLPFTMTSAQKQAVREIYHDLKSGRQMNRLLQGDVGSGKTLVAQFAMTLAVDNGLQAAFMAPTEILAFQHYAGLKNSLEPLGIRVALLTGRQKKKEREEKLARLERGEIDIAVGTHAIIEAGVQFRRLGLVIIDEQHRFGVLQRKALQEKAENPHVLLMTATPIPRTLTMGIYGDLDVSIIAEMPAGRKPIQTRLCCEAEKPELYRLLRKQIAEGRQAYIVYPLVEESEKIDLKAATESYEQLRREVFPELRLGLIHGQLPAAEKEAVMAEFRSGRLDILVGTTVIEVGVDVPNATIMVIEHAERFGISQLHQLRGRVGRGEHASSCFLVYTKLTGDAKDRLQAMAATGDGFRLSEIDLQIRGAGNMLGREQSGAASGLRIADLLTDGDIMRAARAAAFELIRRDETLTHPENALIRDYYMTHFRKRISLADVG” as the sequence, how does the protein production read?
Its protein production is “failed”.

With “MPPNTSFRLAALAVTVSGLLFSSSTLMAAETAETADLVLRNGNIYTVNQGQPWAEAVAVRDGRYVFIGSNAQAAEFIGPKTQVVDLNGSMAMPGINDVHAHPLDGGYEDIYSCNFSQKSSLDDILSQVSECAQKAGPGEWVIGSAWGSPRMAELSTTEALAKLDKVSNGRPVILRDDSYHNRWINSEAMRLAAITAQSVSPAGGVIVKDAKTGEPTGLLQEFPAFQHVQSLVPVRTEEQRLTSGRGATKTMVSLGITGVQEAVSSEVNLRIWSKIDRAEGLPLRIIGSIVSTPLLDEGAAGLELVARRDVYRTTNFFPDRFKFVLDGVPPAHTAKLIEPYLPTQAHGDHYHGDTHYTTEQVVEILSKLDKQGISTKLHAAGDGSLRLALDAVEQVRKINGPNGPMHQIAHTHLISPQDMPRFAQLRVAADLSPMLWFPSDMTNASVVTIGEERMKDFVPTVKLLRSGAVVAGGSDWPAGGPTPSPWIGIEGLVTRQNPLGDAPGTLAPEEAVDLPEAIRIYTINSAKAMGIEKETGSVELGKSADLIVLDRHLFNVPIKQVHRANVVKTYFKGQLVHSAPEKS” as the sequence, how does the protein production read?
Its protein production is “failed”.

With “MPPTQAESVIRSIIREIGQECAAHGEIVSETLIAFMVKAVVLDPSNGFNMDRTLMKSDVQNLVKLCMTRLLDTKNPSLDTIKMQVYFDMNYTNRVEFLEEHHRVLESRLGSVTREITDNRACAKEELESLYRKIISYVLLRSGLGSPTDIKTVREVTAALQSVFPQAELGTFLTLSKKDKERQLKELTMIVTGIRLFNRDCGKGGEGIDDLPAVLHVAIPATMQHIDYQLETARSQVYRYTAILEKAANDPLMRAELQPYMLKEALYNIRQYEVFLQIILSDIITGAQEVEMMTKQLGAHLEQLKMTIKSKIAVPTSQVFPIFIALSTLWTSLQDETIVVGVLSNLFTHIQPFLGAHELYFPERVMQCHLNGATVKTDVCRMKEHMEDRVNVADFRKLEWLFPETTANFDKLLIQYRGFCAYTFAATDGLLLPGNPAIGILKYKEKYYTFNSKDAAYSFAENPEHYIDIVREKAKKNTELIQLLELHQQFETFIPYSQMRDADKHYIKPITKCESSTQTNTHILPPTIVRSYEWNEWELRRKAIKLANLRQKVTHSVQTDLSHLRRENCSQVYPPKDTSTQSMREDSTGVPRPQIYLAGLRGGKSEITDEVKVNLTRDVDET” as the sequence, how does the protein production read?
The protein production was “failed”.

For “MPQGCDRPSHGLRLADEQGRCQIKFVASDSPAEQAGLMIGDEIVALNGLRVSADNFSRRLATYQAGQVLELTIFHDDQLQSFSLTLAEPQPQSYNLRPAATVTSLEHHHHHH”, which protein production is on record?
Its protein production is “failed”.

Which protein production does the source give for “MPQGKWFRFGYGIVLVLLIIYLGSLVDWIFRPIVVFVQTLFAPVIIAGILYYLFRPIVGLLSKKMNRGLSILILFLMIIGAFTAFSLIVGPELQRQFQSLYNNLPTLINQVRDTFIALQSNELFNRFQESETFQPEEMISRFVNSLNDIIGTIGANITGFIGALANFFIILVLVPFILFYLLKEGEKLPVQLLKLFNKKQQHEGRLILADMDKMLSSYIQGQIIVSFCVGILCYIAYLIIGLDYALILALVAMFTNVIPFVGPWIGTFPAVIVAFIDSPLTALIVVIVVVVIQQIESNLISPQVMGKKLAIHPITIIFILLVAGRFAGVVGMLLAVPTYAVGKVIVTHSYRLWKLRKQPVE” here?
Its protein production is “failed”.

For “MPQSAPPNTRQAVLWNDVSGKAWVEMQPILDEILAPFERLVVDAGYPREGGNVLDIGCGAGATTLAMARRVGNDGNCVGLDISQPLVALATERTKLGEVANASFEVGDAQTYAFESGHFDAAISRFGVMFFDDPMAAFTNIRKAVRRRGKLAFVAWRSPLENDFMTTAVRAAAPFLPPAPAPDPDAPGQFAFADGAKVRRILEASGWASIEVEQADVPCRIAQRDLMAYATRLGPLGAALREVDRATAERITTVLPAAFAPFVDDGEARFNAACWLVTALA”, which protein production is on record?
Its protein production is “failed”.

For “MPQVKLKEGEPVDVAIRRFKRSCEKAGVLADVRKREFYEKPTQERKRKKAAAVKRYQKKLARESVRTTRLY”, which protein production is on record?
Its protein production is “failed”.
